Reference: patent US20220088144A1, “SGLT-2 INHIBITORS OR IL-1R ANTAGONISTS FOR REDUCTION OF HYPOGLYCAEMIA AFTER BARIATRIC SURGERY” (UNIVERSITÄTSSPITAL BASEL, priority 2019, published 2022)

Experiments:
[1] = target: T1, sodium glucose co-transporter 2 (SGLT2) (Homo sapiens, UniProt P31639); conditions: cited from earlier work
T1 construct: SGLT2 is predominantly expressed in the proximal tubule of the kidney; host or cells: endogenous transporter of the kidney proximal tubule (in vivo, patients)
T1 sequence (P31639 1-672): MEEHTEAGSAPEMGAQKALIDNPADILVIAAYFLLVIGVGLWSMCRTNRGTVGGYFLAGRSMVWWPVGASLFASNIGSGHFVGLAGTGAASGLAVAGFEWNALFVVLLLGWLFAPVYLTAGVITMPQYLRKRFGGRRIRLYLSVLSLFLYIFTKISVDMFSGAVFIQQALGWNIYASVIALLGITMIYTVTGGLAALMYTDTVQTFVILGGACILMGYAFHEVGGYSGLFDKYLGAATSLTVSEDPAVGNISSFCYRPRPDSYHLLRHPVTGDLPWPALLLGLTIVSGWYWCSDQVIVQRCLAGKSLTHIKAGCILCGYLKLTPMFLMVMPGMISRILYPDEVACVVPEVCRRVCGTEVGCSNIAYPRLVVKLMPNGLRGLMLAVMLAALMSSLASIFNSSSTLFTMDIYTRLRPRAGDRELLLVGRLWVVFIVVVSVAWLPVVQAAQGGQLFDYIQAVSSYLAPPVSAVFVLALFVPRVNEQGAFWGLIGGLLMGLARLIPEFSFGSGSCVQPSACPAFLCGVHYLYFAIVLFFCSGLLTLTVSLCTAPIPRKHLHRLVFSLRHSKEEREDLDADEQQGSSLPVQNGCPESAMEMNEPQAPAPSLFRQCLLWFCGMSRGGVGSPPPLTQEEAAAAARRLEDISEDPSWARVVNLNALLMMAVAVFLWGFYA

[2] = Serum IL-1Ra level after anakinra injection; format: in vivo, human; conditions: average; 100 mg s.c.; increased from an average of 272 pg/ml
Description: The secondary objectives are to evaluate whether treatment of empagliflozin (Jardiance®) or anakinra (Kineret®) have effects on the following aspects: • level of insulin secretion and sensitivity • levels of GLP-1, glucagon and C-peptide • levels of IL-6; IL-1Ra, CRP • scores in Edinburgh Hypoglycaemia Scale (clinical score for assessment of hypoglycemia), Stanford Sleepiness Scale (clinical score of assessment of sleepiness) as well as Sigstad Score (clinical score for early and late dumping symptoms) • Length of time and amount of glucose needed for restoring normoglycemia.
Individual body weights remained stable throughout the study period. […] Leukocyte and CRP levels were not elevated and remained stable throughout the trial.

[3] = cited from earlier work

Row | Compound | duration of glucosuria ([1]; after oral administration) | glucosuria ([1]; in vivo) [g glucose per day] | serum levels of IL-1Ra after injection of anakinra [2] [ng/mL] | reduction of WBC/ANC ([3]; share of patients) [%] | mild and transient local injection reactions ([3]; share of subjects treated)
1 | OC[C@H]1O[C@@H](c2ccc(Cl)c(Cc3ccc(O[C@H]4CCOC4)cc3)c2)[C@H](O)[C@@H](O)[C@@H]1O [empagliflozin] | at least 24 hours | 64 | – | – | –
2 | anakinra: CAS NO 143090-92-0; recombinant, non-glycosylated form of the human interleukin-1 receptor antagonist (IL-1 Ra), 153 amino acids | – | – | 43.836 | 2.4 | 20-50%
